From patent publication US20240240209A1, “SYNTHESIS OF ENANTIOPURE CIS-A-IRONE FROM A RENEWABLE CARBON SOURCE” (Agency for Science, Technology and Research, priority 2021, published 2024)

B1: pMT1_E153S: pMT1 with E153S (protein)
chain: MPQEARTPQQQVTADEVGDWYDKFGEVYHLTLGESVHCGLWFPPDAPVPQDMELVTMSSQAQDRYTDYLIETLDPKAGQHLLDIGCGTGRTALKAARQRGIAVTGVAVSKEQIAAANRLAAGHGLTERLTFEVADAMRLPYEDESFDCAWAISSLCHMDRAKALGEAWRVLKPGGDLLVLESVVTEELTEPETALFETLYAANVPPRLGEFFDIVSGAGFHTLSLKDLSANLAMTMNVFALGVYSRRAEFTERFGAEFVDGLLAGLGSAQETLIRKTRFFMATLRKPAV
B2: pMT1_E153P: pMT1 with E153P (protein)
chain: MPQEARTPQQQVTADEVGDWYDKFGEVYHLTLGESVHCGLWFPPDAPVPQDMELVTMSSQAQDRYTDYLIETLDPKAGQHLLDIGCGTGRTALKAARQRGIAVTGVAVSKEQIAAANRLAAGHGLTERLTFEVADAMRLPYEDESFDCAWAIPSLCHMDRAKALGEAWRVLKPGGDLLVLESVVTEELTEPETALFETLYAANVPPRLGEFFDIVSGAGFHTLSLKDLSANLAMTMNVFALGVYSRRAEFTERFGAEFVDGLLAGLGSAQETLIRKTRFFMATLRKPAV
B3: pMT1_E153R: pMT1 with E153R (protein)
chain: MPQEARTPQQQVTADEVGDWYDKFGEVYHLTLGESVHCGLWFPPDAPVPQDMELVTMSSQAQDRYTDYLIETLDPKAGQHLLDIGCGTGRTALKAARQRGIAVTGVAVSKEQIAAANRLAAGHGLTERLTFEVADAMRLPYEDESFDCAWAIRSLCHMDRAKALGEAWRVLKPGGDLLVLESVVTEELTEPETALFETLYAANVPPRLGEFFDIVSGAGFHTLSLKDLSANLAMTMNVFALGVYSRRAEFTERFGAEFVDGLLAGLGSAQETLIRKTRFFMATLRKPAV
B4: pMT1_E153Q: pMT1 with E153Q (protein)
chain: MPQEARTPQQQVTADEVGDWYDKFGEVYHLTLGESVHCGLWFPPDAPVPQDMELVTMSSQAQDRYTDYLIETLDPKAGQHLLDIGCGTGRTALKAARQRGIAVTGVAVSKEQIAAANRLAAGHGLTERLTFEVADAMRLPYEDESFDCAWAIQSLCHMDRAKALGEAWRVLKPGGDLLVLESVVTEELTEPETALFETLYAANVPPRLGEFFDIVSGAGFHTLSLKDLSANLAMTMNVFALGVYSRRAEFTERFGAEFVDGLLAGLGSAQETLIRKTRFFMATLRKPAV
B5: pMT1_M236Q: pMT1 with M236Q (protein)
chain: MPQEARTPQQQVTADEVGDWYDKFGEVYHLTLGESVHCGLWFPPDAPVPQDMELVTMSSQAQDRYTDYLIETLDPKAGQHLLDIGCGTGRTALKAARQRGIAVTGVAVSKEQIAAANRLAAGHGLTERLTFEVADAMRLPYEDESFDCAWAIESLCHMDRAKALGEAWRVLKPGGDLLVLESVVTEELTEPETALFETLYAANVPPRLGEFFDIVSGAGFHTLSLKDLSANLAMTQNVFALGVYSRRAEFTERFGAEFVDGLLAGLGSAQETLIRKTRFFMATLRKPAV
B6: pMT1_M236R: pMT1 with M236R (protein)
chain: MPQEARTPQQQVTADEVGDWYDKFGEVYHLTLGESVHCGLWFPPDAPVPQDMELVTMSSQAQDRYTDYLIETLDPKAGQHLLDIGCGTGRTALKAARQRGIAVTGVAVSKEQIAAANRLAAGHGLTERLTFEVADAMRLPYEDESFDCAWAIESLCHMDRAKALGEAWRVLKPGGDLLVLESVVTEELTEPETALFETLYAANVPPRLGEFFDIVSGAGFHTLSLKDLSANLAMTRNVFALGVYSRRAEFTERFGAEFVDGLLAGLGSAQETLIRKTRFFMATLRKPAV
B7: pMT1_M236P: pMT1 with M236P (protein)
chain: MPQEARTPQQQVTADEVGDWYDKFGEVYHLTLGESVHCGLWFPPDAPVPQDMELVTMSSQAQDRYTDYLIETLDPKAGQHLLDIGCGTGRTALKAARQRGIAVTGVAVSKEQIAAANRLAAGHGLTERLTFEVADAMRLPYEDESFDCAWAIESLCHMDRAKALGEAWRVLKPGGDLLVLESVVTEELTEPETALFETLYAANVPPRLGEFFDIVSGAGFHTLSLKDLSANLAMTPNVFALGVYSRRAEFTERFGAEFVDGLLAGLGSAQETLIRKTRFFMATLRKPAV
B8: pMT1_M236S: pMT1 with M236S (protein)
chain: MPQEARTPQQQVTADEVGDWYDKFGEVYHLTLGESVHCGLWFPPDAPVPQDMELVTMSSQAQDRYTDYLIETLDPKAGQHLLDIGCGTGRTALKAARQRGIAVTGVAVSKEQIAAANRLAAGHGLTERLTFEVADAMRLPYEDESFDCAWAIESLCHMDRAKALGEAWRVLKPGGDLLVLESVVTEELTEPETALFETLYAANVPPRLGEFFDIVSGAGFHTLSLKDLSANLAMTSNVFALGVYSRRAEFTERFGAEFVDGLLAGLGSAQETLIRKTRFFMATLRKPAV
B9: pMT1_R160T: pMT1 with R160T (protein)
chain: MPQEARTPQQQVTADEVGDWYDKFGEVYHLTLGESVHCGLWFPPDAPVPQDMELVTMSSQAQDRYTDYLIETLDPKAGQHLLDIGCGTGRTALKAARQRGIAVTGVAVSKEQIAAANRLAAGHGLTERLTFEVADAMRLPYEDESFDCAWAIESLCHMDTAKALGEAWRVLKPGGDLLVLESVVTEELTEPETALFETLYAANVPPRLGEFFDIVSGAGFHTLSLKDLSANLAMTMNVFALGVYSRRAEFTERFGAEFVDGLLAGLGSAQETLIRKTRFFMATLRKPAV
B10: pMT1_R160Q: pMT1 with R160Q (protein)
chain: MPQEARTPQQQVTADEVGDWYDKFGEVYHLTLGESVHCGLWFPPDAPVPQDMELVTMSSQAQDRYTDYLIETLDPKAGQHLLDIGCGTGRTALKAARQRGIAVTGVAVSKEQIAAANRLAAGHGLTERLTFEVADAMRLPYEDESFDCAWAIESLCHMDQAKALGEAWRVLKPGGDLLVLESVVTEELTEPETALFETLYAANVPPRLGEFFDIVSGAGFHTLSLKDLSANLAMTMNVFALGVYSRRAEFTERFGAEFVDGLLAGLGSAQETLIRKTRFFMATLRKPAV
B11: pMT1_R160S: pMT1 with R160S (protein)
chain: MPQEARTPQQQVTADEVGDWYDKFGEVYHLTLGESVHCGLWFPPDAPVPQDMELVTMSSQAQDRYTDYLIETLDPKAGQHLLDIGCGTGRTALKAARQRGIAVTGVAVSKEQIAAANRLAAGHGLTERLTFEVADAMRLPYEDESFDCAWAIESLCHMDSAKALGEAWRVLKPGGDLLVLESVVTEELTEPETALFETLYAANVPPRLGEFFDIVSGAGFHTLSLKDLSANLAMTMNVFALGVYSRRAEFTERFGAEFVDGLLAGLGSAQETLIRKTRFFMATLRKPAV
B12: pMT1_Y200P: pMT1 with Y200P (protein)
chain: MPQEARTPQQQVTADEVGDWYDKFGEVYHLTLGESVHCGLWFPPDAPVPQDMELVTMSSQAQDRYTDYLIETLDPKAGQHLLDIGCGTGRTALKAARQRGIAVTGVAVSKEQIAAANRLAAGHGLTERLTFEVADAMRLPYEDESFDCAWAIESLCHMDRAKALGEAWRVLKPGGDLLVLESVVTEELTEPETALFETLPAANVPPRLGEFFDIVSGAGFHTLSLKDLSANLAMTMNVFALGVYSRRAEFTERFGAEFVDGLLAGLGSAQETLIRKTRFFMATLRKPAV
B13: pMT1_Y200Q: pMT1 with Y200Q (protein)
chain: MPQEARTPQQQVTADEVGDWYDKFGEVYHLTLGESVHCGLWFPPDAPVPQDMELVTMSSQAQDRYTDYLIETLDPKAGQHLLDIGCGTGRTALKAARQRGIAVTGVAVSKEQIAAANRLAAGHGLTERLTFEVADAMRLPYEDESFDCAWAIESLCHMDRAKALGEAWRVLKPGGDLLVLESVVTEELTEPETALFETLQAANVPPRLGEFFDIVSGAGFHTLSLKDLSANLAMTMNVFALGVYSRRAEFTERFGAEFVDGLLAGLGSAQETLIRKTRFFMATLRKPAV
B14: pMT1_Y200S: pMT1 with Y200S (protein)
chain: MPQEARTPQQQVTADEVGDWYDKFGEVYHLTLGESVHCGLWFPPDAPVPQDMELVTMSSQAQDRYTDYLIETLDPKAGQHLLDIGCGTGRTALKAARQRGIAVTGVAVSKEQIAAANRLAAGHGLTERLTFEVADAMRLPYEDESFDCAWAIESLCHMDRAKALGEAWRVLKPGGDLLVLESVVTEELTEPETALFETLSAANVPPRLGEFFDIVSGAGFHTLSLKDLSANLAMTMNVFALGVYSRRAEFTERFGAEFVDGLLAGLGSAQETLIRKTRFFMATLRKPAV
B15: pMT1_Y200R (protein)
chain: MPQEARTPQQQVTADEVGDWYDKFGEVYHLTLGESVHCGLWFPPDAPVPQDMELVTMSSQAQDRYTDYLIETLDPKAGQHLLDIGCGTGRTALKAARQRGIAVTGVAVSKEQIAAANRLAAGHGLTERLTFEVADAMRLPYEDESFDCAWAIESLCHMDRAKALGEAWRVLKPGGDLLVLESVVTEELTEPETALFETLRAANVPPRLGEFFDIVSGAGFHTLSLKDLSANLAMTMNVFALGVYSRRAEFTERFGAEFVDGLLAGLGSAQETLIRKTRFFMATLRKPAV
B16: pMT1_Y200T: pMT1 with Y200T (protein)
chain: MPQEARTPQQQVTADEVGDWYDKFGEVYHLTLGESVHCGLWFPPDAPVPQDMELVTMSSQAQDRYTDYLIETLDPKAGQHLLDIGCGTGRTALKAARQRGIAVTGVAVSKEQIAAANRLAAGHGLTERLTFEVADAMRLPYEDESFDCAWAIESLCHMDRAKALGEAWRVLKPGGDLLVLESVVTEELTEPETALFETLTAANVPPRLGEFFDIVSGAGFHTLSLKDLSANLAMTMNVFALGVYSRRAEFTERFGAEFVDGLLAGLGSAQETLIRKTRFFMATLRKPAV

Assay: Cell lysate reaction of pMT enzymes with psi-ionone, irones quantified by HS-SPME-GCMS
Type: biochemical
Details: pMT1_E153 mutants; AUC vs non-mutated (=1)
How it was run: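 pMT1 site-saturation mutants were expressed in E. coli BL21(DE3) and lysed, and lysates were incubated 2 days at 28 °C with 0.2 mM SAM and 10 mg/L psi-ionone (plus caryophyllene) in 50 mM Tris pH 7, 10 mM MgCl2. Cis-α-irone was measured by HS-SPME-GCMS peak area and given as fold change over non-mutated enzyme.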

B1 and B2 are the same in “fold change in cis-α-irone produced” value: 0.0 for the first, 0.0 for the second.

B3 and B4 are the same in “fold change in cis-α-irone produced” value: 0.0 for the first, 0.0 for the second.

Same assay, conditions: pMT1_M236 mutants; AUC vs non-mutated (=1)

B5 and B6 are the same in “fold change in cis-α-irone produced” value: 0.0 for the first, 0.0 for the second.

Going from B7 to B8, the “fold change in cis-α-irone produced” value rises from 0.0 to 0.7.

Same assay, conditions: pMT1_R160 mutants; AUC vs non-mutated (=1)

First: B9
Second: B10
The “fold change in cis-α-irone produced” value of the first is lower: 1.2 for the first, 1.3 for the second.

With B11 the “fold change in cis-α-irone produced” value was 0.0.

Same assay, conditions: pMT1_Y200 mutants; AUC vs non-mutated (=1)

Going from B12 to B13, the “fold change in cis-α-irone produced” value rises from 0.0 to 0.1.

Going from B14 to B15, the “fold change in cis-α-irone produced” value falls from 0.2 to 0.0.

With B16 the “fold change in cis-α-irone produced” value was 0.0.
